One assay concerns STAT3. Nature of the assay: Immunoblot of phosphotyrosine 705 of STAT3 in F11 cells. The class given is cell-based. As to conditions: F11 cells, 15 min. As to the method: E) F11 cells were transfected with an indicated amount of pRNA-U6.1/Shuttle vector (empty), pRNA-U6.1/Shuttle-IL-6R siRNA, or pRNA-U6.1/Shuttle-LIFR siRNA. At 48 hrs after transfection, the cells were treated with 100 ng/ml IL-6, 100 ng/ml CNTF or 1 μM HNG at 37° for 15 min, and harvested. The results of immunoblot analysis using anti-phophoSTAT3 ([…]) antibody and anti-STAT3 antibody were shown in photos. A) F11 cells were added with an indicated amount of HN, HNG or HNA and harvested 15 min later for immunoblot analysis with antibodies recognizing phosphotyrosine 705 of STAT3 or STAT3. The results are shown in photos. B) F11 cells were transfected with 0.5 μg of pRNA-U1.6/Shuttle vector, pRNA-U6.1/Shuttle-WSX-1 siRNA, pRNA-U6.1/Shuttle-CNTF-R siRNA, both pRNA-U6.1/Shuttle-WSX-1 siRNA and pRNA-U6.1/Shuttle-CNTF-R siRNA (0.5 μg each), or pRNA-U6.1/Shuttle-FPR2 siRNA. The total amount of vectors was adjusted to be 1.0 μg by including a backbone vector. […] The results are shown in photos. Cell lysates (10-20 μg/lane) or pulled-down precipitates were subject to SDS-PAGE, and the proteins separated on the gel were transferred onto polyvinylidene difluoride membranes as described (Hashimoto et al, 2000). Visualization of the immunoreactive protein bands was performed by ECL (Amersham Pharmacia Biotech, Uppsala, Sweden).

The test system of assay [1] is primary cortical neurons (PCNs). The assay can be described thus: Aβ neurotoxicity in primary cortical neurons, WST-8 / Calcein / LDH. Type of assay: cell-based, mouse. The settings on record: for effect on the HN effect: 10 nM HNG. How it is done: B) PCNs were incubated with 25 μM Aβ (upper) in the presence of 10 μg of recombinant soluble human gp130 (lower “+”) or BSA (lower “−”). Cell viability was determined by WST-8 assay (upper) or Calcein fluorescence assay (lower) at 72 hr after the onset of treatment with Aβ.
C) PCNs were incubated with 25 μM Aβ (1-43) in the presence of 1 μg of neutralizing anti-mouse gp130 antibody (RX435) or control IgG. Cell viability and cell mortality were determined by Calcein fluorescence (left panel) and LDH assays (right panel), respectively, at 72 hr after the onset of treatment with Aβ (1-43).
[…] At 72 hr after incubation, the cells were harvested for WST-8 assays or/and Calcein fluorescence assays to show cell viability.
B) The soluble IL-6 receptor-α (sIL-6R) or the soluble CNTF-R (100 ng/ml) were added to the cells as in the above A), followed by the stimulation with its ligand, IL-6 or CNTF (100 ng/ml), respectively to show the effects on the neuronal cell death due to Aβ. The right and left graphs show the cell viabilities determined by WST-8 assays and Calcein fluorescence assays, respectively.
C) The neutralizing antibodies (1 μg) for the mouse gp130, mouse LIFR, mouse IL-11R and rat CNTF-R were added as in the above A), and cell viability was determined by Calcein fluorescence assays after 72 hours.
WST-8 assay was performed at 72 hrs after the treatment.
The primary culture of mouse cortical neurons was prepared as described previously (Sudo et al., 2000). Briefly, primary cortical neurons, obtained from embryonic day 14 (E14) ICR mice were seeded in poly-L-lysine-coated 96 well plates (Sumitomo Bakelite) at 2.5 or 5.0×10^4 cells/well in Neuron Medium (Sumitomo Bakelite) (Hashimoto et al., 2003; Niikura et al., 2004). Purity of neurons by this method was >98%. After 3 days, the culture medium was replaced with DMEM with N2 supplement. On the fourth day in vitro, 25 μM of Aβ (1-42) was added in association with indicated concentrations of HN or cytokines in the presence or the absence of soluble cytokine receptors or neutralizing antibodies. At 72 hrs after the onset of treatment, cell viability was assessed by WST-8 assay and/or Calcein fluorescence assay and cell mortality was assessed by the Trypan blue exclusion assay and LDH assay (Hashimoto et al, 2000, 2001 a b, 2003).

Assay [2] has as its target T1, C-terminally myc-tagged human WSX-1 (mycHis-WSX-1) (human, UniProt Q6UWB1 33-636).
T1 construct: whole, on cells; in the pull-down and co-immunoprecipitation it stood in cell lysates; also called myc-WSX-1; IL-27 receptor; not shown: C-terminal myc-His tag of the pEF-mycHis vector
T1 sequence (looked up): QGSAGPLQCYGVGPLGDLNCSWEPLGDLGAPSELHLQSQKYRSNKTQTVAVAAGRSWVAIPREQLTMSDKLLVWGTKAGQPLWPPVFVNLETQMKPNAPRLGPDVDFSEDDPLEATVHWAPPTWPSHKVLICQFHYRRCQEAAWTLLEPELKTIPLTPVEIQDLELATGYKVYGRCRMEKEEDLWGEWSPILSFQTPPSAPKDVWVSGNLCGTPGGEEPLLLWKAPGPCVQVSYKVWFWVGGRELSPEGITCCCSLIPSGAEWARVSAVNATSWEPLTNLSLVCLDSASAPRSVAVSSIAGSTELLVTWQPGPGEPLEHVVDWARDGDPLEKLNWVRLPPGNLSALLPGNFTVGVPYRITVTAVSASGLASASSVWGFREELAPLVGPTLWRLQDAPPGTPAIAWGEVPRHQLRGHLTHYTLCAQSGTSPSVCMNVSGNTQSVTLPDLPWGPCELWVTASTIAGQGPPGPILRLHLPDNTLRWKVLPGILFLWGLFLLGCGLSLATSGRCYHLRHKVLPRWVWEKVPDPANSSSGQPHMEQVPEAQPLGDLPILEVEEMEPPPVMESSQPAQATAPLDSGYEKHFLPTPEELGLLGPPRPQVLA
Nature of the assay: cold competitor (10 µM) in binding assay (1), F11 cells expressing human WSX-1 and gp130. How it is done: B) F11 cells were transfected with 0.5 µg of pEF-myc His human CREME9 or pEF-mycHis human WSX-1 in association with 0.5 µg of pCAG-human gp130. […] Fluorescence signals were detected with a laser-scanning, confocal microscope LSM (Carl Zeiss, Germany) (right panels).
(§1) F11 cells (7×10^4/well in 6-well plates) were replated into 96-well plates (7×10^3 cells/well) at 24 hrs after transfection with indicated amounts of the plasmids encoding mycHis-WSX or V5-CNTF-R, and with PCAG-human gp130 if required. […] After 6 hrs incubation, they were fixed with 4% paraformaldehyde in PBS for 30 min. After washing with PBS, cells were stained with FITC-conjugated avidin (Molecularprobe, Eugene, Oreg., USA). Immunofluorescence intensity was measured (excitation=485 nm, emission=535 nm) with a spectrofluorometer (Wallac1420 ARVOsx Multi Label Counter). Immunohistochemical analysis was done with a laser-scanning, confocal microscope LSM (Carl Zeiss, Germany).

The target in assay [3] is T2, Humanin receptor (HNR) overexpressed in F11 cells: human CNTF-R/WSX-1/gp130 (human, UniProt P26992 23-342; Q6UWB1 33-636; P40189 23-918).
T2 construct: whole, on cells; The three human subunits co-transfected into F11 cells, which also carry the endogenous receptor; also called both the CNTF receptor and WSX-1; not shown: C-terminal V5 tag; C-terminal myc-His tag
Nature of the assay: cold competitor in binding assay (2), F11 cells transfected with human CNTF-R/WSX-1/gp130. As to the method: A) F11 cells were seeded on 96-well plates coated with poly-L-lysine (7 ×10^3 cells/well). […] On the other hand, F11 cells were transfected with 0.5 μg of pcDNA3.1/GS-human CNTF-R, pEF1/MycHis-human WSX-1, and 1.0 μg of pCAG-human gp130. At 24 hrs after the transfection, the cells were re-seeded on 96-well plates coated with poly-L-lysine (7 ×10^3 cells/well).
as §1

The test system of another assay is F11 cells. Nature of the assay: Neuronal cell death of F11 cells induced by overexpression of FAD genes (V642I-APP, M146L-PS1), WST-8 / Trypan blue. Type of assay: cell-based. As to the method: D) F11 cells were transfected with 0.5 μg of the pcDNA3 vector or pcDNA3-V642I-APP in association with 0.5 μg of the pEFBos vector or pEFBos-wild-type human gp130 (gp130wt). At 24 hr after transfection, the cells were added with 1 μg of neutralizing anti-mouse gp130 antibody. Cell mortality (left panel) and cell viability (right panel) were determined by Trypan blue exclusion assay and WST-8 assay at 72 hr after transfection. Below are shown the results of the expression of V642I-APP, and human gp130wt, which were confirmed by immunoblot analysis (photos).
B) F11 cells were transfected with 0.5 μg of the pcDNA3 vector or pcDNA3-V642I-APP in association with pRNA-U6.1/Shuttle vector (NO), pRNA-U6.1/Shuttle-siWSX-1 (W), pRNA-U6.1/Shuttle-siCNTF-R (C), or pRNA-U6.1/Shuttle-siFPR-2 (F) (Hashimoto et al. 2005). At 24 hrs after transfection, the cells were added with or without 10 nM of HNG. At 72 hrs after transfection, the cells were harvested for WST-8 assays. […]
F11 cells were transfected with pcDNA3 vector or pcDNA3-V642I-APP. […] The expression of V642I-APP determined by immunoblot analysis was shown below in a photo. […]
The transfection procedures were as described (Hashimoto et al, 2000, 2001a, 2003). […] Transfection efficiency in these protocols has been determined to be invariably around 70%. […]
(In general: Formazan colour is commonly taken as a measure of viable cells.)

The values below come from patent US8173771B2, “Humanin receptor or humanin-like polypeptide receptor” (Keio Univeristy, priority 2005, dated 2012).

Some results are limits rather than exact numbers.

T2 sequence (P26992 23-342, chain 1 of 2): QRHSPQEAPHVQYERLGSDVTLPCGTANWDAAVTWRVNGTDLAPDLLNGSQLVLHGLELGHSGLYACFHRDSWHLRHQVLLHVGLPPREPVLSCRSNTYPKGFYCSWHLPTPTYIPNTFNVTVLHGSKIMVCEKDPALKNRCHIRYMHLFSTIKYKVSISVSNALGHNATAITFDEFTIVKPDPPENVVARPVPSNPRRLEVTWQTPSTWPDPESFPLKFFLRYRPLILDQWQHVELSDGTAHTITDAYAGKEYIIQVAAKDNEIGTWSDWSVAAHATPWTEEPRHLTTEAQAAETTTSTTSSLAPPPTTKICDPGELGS
T2 sequence (P40189 23-918, chain 3 of 2): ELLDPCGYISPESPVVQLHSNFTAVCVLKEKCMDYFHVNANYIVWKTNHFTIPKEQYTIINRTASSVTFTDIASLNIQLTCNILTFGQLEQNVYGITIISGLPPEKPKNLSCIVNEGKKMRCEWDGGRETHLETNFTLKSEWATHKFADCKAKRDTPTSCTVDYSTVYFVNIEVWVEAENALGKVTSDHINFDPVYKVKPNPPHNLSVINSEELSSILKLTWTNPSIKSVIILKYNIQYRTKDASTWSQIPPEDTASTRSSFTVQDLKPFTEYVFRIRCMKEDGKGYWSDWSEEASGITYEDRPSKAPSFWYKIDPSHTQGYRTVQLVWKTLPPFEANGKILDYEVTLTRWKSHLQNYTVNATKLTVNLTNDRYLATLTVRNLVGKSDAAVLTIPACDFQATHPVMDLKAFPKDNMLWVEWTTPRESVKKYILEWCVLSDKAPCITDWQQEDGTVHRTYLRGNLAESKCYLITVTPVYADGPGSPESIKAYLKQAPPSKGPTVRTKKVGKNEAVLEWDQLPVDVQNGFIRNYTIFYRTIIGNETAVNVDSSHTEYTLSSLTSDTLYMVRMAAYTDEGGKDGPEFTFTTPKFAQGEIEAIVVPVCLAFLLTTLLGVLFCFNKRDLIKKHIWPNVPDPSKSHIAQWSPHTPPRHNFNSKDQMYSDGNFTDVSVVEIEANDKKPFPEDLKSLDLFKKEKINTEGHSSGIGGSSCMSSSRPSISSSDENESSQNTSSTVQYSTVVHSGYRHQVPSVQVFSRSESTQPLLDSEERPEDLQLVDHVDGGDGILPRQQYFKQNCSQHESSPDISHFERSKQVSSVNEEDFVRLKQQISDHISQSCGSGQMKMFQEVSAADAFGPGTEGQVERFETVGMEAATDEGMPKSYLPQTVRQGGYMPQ

B1: CNTF: ciliary neurotrophic factor, recombinant cytokine (protein, UniProt P26441 1-200, looked up)
Ciliary neurotrophic factor: MAFTEHSPLTPHRRDLCSRSIWLARKIRSDLTALTESYVKHQGLNKNINLDSADGMPVASTDQWSELTEAERLQENLQAYRTFHVLLARLLEDQQVHFTPTEGDFHQAIHTLLLQVAAFAYQIEELMILLEYKIPRNEADGMPINVGDGGLFEKKLWGLKVLQELSQWTVRSIHDLRFISSHQTGIPARGSHYIANNKKM
For B1, the “phosphorylation of tyrosine 705 of STAT3” value in the assay with STAT3 is reported as “increased”. In addition, the “effect on the HN effect” value in assay [1] (PCN, 10 μM Aβ (1-43)) is reported as “inhibited the HN effect”. In addition, in assay [1] (cytokine 100 ng/ml with its soluble receptor (sIL-6R or soluble CNTF receptor) 100 ng/ml), the “mimicry of HN in neuroprotection against neuronal cell death by Aβ” value is reported as “did not mimic HN”. The “inhibition of neurotoxicity by Aβ” value in assay [1] (cytokine alone, physiological levels (up to 100 ng/ml), 25 μM Aβ) is reported as “did not inhibit”.

As for MAPRGFSCLLLLTGEIDLPVKRRA (also called S14G-HN) [S14G-Humanin (HNG)], the binding result in assay [2] and in assay [3] was “binds” each time.

B2: IL-27: IL-27 (IL-27p28/EBV-induced gene 3), IL-6/IL-12 family cytokine binding to WSX-1/gp130 (protein)
chain 1: FPRPPGRPQLSLQELRREFTVSLHLARKLLSEVRGQAHRFAESHLPGVNLYLLPLGEQLPDVSLTFQAWRRLSDPERLCFISTTLQPFHALLGGLGTQGRWTNMERMQLWAMRLDLRDLQRHLRFQVLAAGFNLPEEEEEEEEEEEEERKGLLPGALGSALQGPAQVSWPQLLSTYRLLHSLELVLSRAVRELLLLSKAGHSVWPLGFPTLSPQP
chain 2: RKGPPAALTLPRVQCRASRYPIAVDCSWTLPPAPNSTSPVSFIATYRLGMAARGHSWPCLQQTPTSTSCTITDVQLFSMAPYVLNVTAVHPWGSSSSFVPFITEHIIKPDPPEGVRLSPLAERQLQVQWEPPGSWPFPEIFSLKYWIRYKRQGAARFHRVGPIEATSFILRAVRPRARYYVQVAAQDLTDYGELSDWSLPATATMSLGK
Regarding B2, the “phosphorylation of tyrosine 705 of STAT3” value in the assay with STAT3 is on record as “increased”. Further, the “concentration range showing HN-like effect (activity)” value in the assay with F11 cells (WST-8) fell in the range of 1 to 10 µM. For the same molecule, in the assay with F11 cells (given with HNG), the “concentration range suppressing the HN effect” value was at most 100 nM. Further, in assay [1] (PCN, 10 μM Aβ (1-43)), the “effect on the HN effect” value was “suppressed the HN effect”. In addition, the HN-like effect entry in assay [1] (PCN, higher concentration range, 10 μM Aβ (1-43)) is reported as “had the HN-like effect”.
